From publication PMC13219714, “μ₃-Oxo nucleophile formation enables efficient SN2 hydrolysis at the trinuclear metal center in inorganic pyrophosphatase” (Communications Chemistry, 2026)

T1: ShPPase (Family II inorganic pyrophosphatase from Shewanella sp. AS-11) (Shewanella sp. AS-11, UniProt L8AXY8)
T1 construct: gene ppia; recombinant from pET16b in E. coli BL21(DE3); purified as previously described
T1 sequence (L8AXY8 2-308): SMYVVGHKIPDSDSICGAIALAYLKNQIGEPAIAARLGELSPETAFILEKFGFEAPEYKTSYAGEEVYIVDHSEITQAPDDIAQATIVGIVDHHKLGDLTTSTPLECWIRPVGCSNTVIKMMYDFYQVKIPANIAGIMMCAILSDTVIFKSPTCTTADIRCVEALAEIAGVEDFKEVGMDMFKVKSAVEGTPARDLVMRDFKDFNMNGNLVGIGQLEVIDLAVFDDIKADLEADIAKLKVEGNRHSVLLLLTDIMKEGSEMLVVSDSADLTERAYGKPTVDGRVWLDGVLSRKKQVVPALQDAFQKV

B1: ShPPase (Family II inorganic pyrophosphatase from Shewanella sp. AS-11) (Shewanella sp. AS-11) (protein)
chain: SMYVVGHKIPDSDSICGAIALAYLKNQIGEPAIAARLGELSPETAFILEKFGFEAPEYKTSYAGEEVYIVDHSEITQAPDDIAQATIVGIVDHHKLGDLTTSTPLECWIRPVGCSNTVIKMMYDFYQVKIPANIAGIMMCAILSDTVIFKSPTCTTADIRCVEALAEIAGVEDFKEVGMDMFKVKSAVEGTPARDLVMRDFKDFNMNGNLVGIGQLEVIDLAVFDDIKADLEADIAKLKVEGNRHSVLLLLTDIMKEGSEMLVVSDSADLTERAYGKPTVDGRVWLDGVLSRKKQVVPALQDAFQKV
notes: recombinant from pET16b in E. coli BL21(DE3); purified as previously described
B2: ShPPase (Family II inorganic pyrophosphatase from Shewanella sp. AS-11) (Shewanella sp. AS-11; D14A) (protein)
chain: SMYVVGHKIPDSASICGAIALAYLKNQIGEPAIAARLGELSPETAFILEKFGFEAPEYKTSYAGEEVYIVDHSEITQAPDDIAQATIVGIVDHHKLGDLTTSTPLECWIRPVGCSNTVIKMMYDFYQVKIPANIAGIMMCAILSDTVIFKSPTCTTADIRCVEALAEIAGVEDFKEVGMDMFKVKSAVEGTPARDLVMRDFKDFNMNGNLVGIGQLEVIDLAVFDDIKADLEADIAKLKVEGNRHSVLLLLTDIMKEGSEMLVVSDSADLTERAYGKPTVDGRVWLDGVLSRKKQVVPALQDAFQKV
notes: as for B1
B3: ShPPase (Family II inorganic pyrophosphatase from Shewanella sp. AS-11) (Shewanella sp. AS-11; D14N) (protein)
chain: SMYVVGHKIPDSNSICGAIALAYLKNQIGEPAIAARLGELSPETAFILEKFGFEAPEYKTSYAGEEVYIVDHSEITQAPDDIAQATIVGIVDHHKLGDLTTSTPLECWIRPVGCSNTVIKMMYDFYQVKIPANIAGIMMCAILSDTVIFKSPTCTTADIRCVEALAEIAGVEDFKEVGMDMFKVKSAVEGTPARDLVMRDFKDFNMNGNLVGIGQLEVIDLAVFDDIKADLEADIAKLKVEGNRHSVLLLLTDIMKEGSEMLVVSDSADLTERAYGKPTVDGRVWLDGVLSRKKQVVPALQDAFQKV
notes: as for B1

Assays:
[1] = biological target: T1, ShPPase (Family II inorganic pyrophosphatase from Shewanella sp. AS-11); assay: Zn K-edge XANES / EXAFS; type: binding; details: Zn2+-ShPPase 1.1 mM, 0.1 M PNP, 0.1 M MgCl2, pH 7.5; active site, trinuclear metal center
[2] = substrate: O=P(O)(O)OP(=O)(O)O; assay: molybdenum blue phosphate release; type: biochemical, Shewanella sp. AS-11; details: Zn2+-activated enzyme, 5 mM MgCl2, 50 mM KCl, 100 mM Tris-HCl pH 7.5, 25 °C
From the text: molybdenum blue phosphate release on ShPPase (Family II inorganic pyrophosphatase from Shewanella sp. AS-11)

[3] = primers for D14N and D14A appear exchanged

Molecule	Zn K-edge XANES / EXAFS [1]	Km [2]	kcat [2]	kcat/Km [2]	Km [2, 3]	kcat [2, 3]	kcat/Km [2, 3]
O=P(O)(O)NP(=O)(O)O [PNP, imidodiphosphate]	Zn²⁺ ions are predominantly five-coordinate in the substrate-free form, but transition to six-coordinate upon PNP binding						
B1		79 ± 18 µM	99.8 ± 5.5 s⁻¹	1.26e+06 M⁻¹ s⁻¹			
B2		179 ± 37 µM	0.019 ± 0.001 s⁻¹	110 M⁻¹ s⁻¹			
B3					100 ± 20 µM	0.034 ± 0.002 s⁻¹	340 M⁻¹ s⁻¹
